Measurements from patent US20240026407A1, “MODIFICATION OF SAPONINS” (GLAXOSMITHKLINE BIOLOGICALS SA, priority 2020, published 2024).

Assays:
Assay type in all cases: biochemical, Quillaja saponaria
[1] = Experiment 5-1: screening of additional glucosidases for deglycosylation with purified QS-18 (0.04 mg/ml) at pH 7.5 and 30 deg C; conditions: pH 7.5, 30 degrees C, 18 hours, LCMS/MS
Protocol: The 94 additional genes, together with positive control (DNA encoding SEQ ID No. 262) and negative control, were transformed, expressed, lysed and reacted in the same manner as described above for Experiment 4-1, except the reaction was incubated at 30 degrees C. for 18 hours.
Samples were analysed by LCMS/MS according to the procedure in Experiment 4-1.

[2] = Experiment 5-2: screening of additional glucosidases for deglycosylation with QS-18 in crude bark extract (80%) at pH 6 and 35 deg C; conditions: CBE 80%, pH 6, 35 deg C, 18 hours; UV HPLC
Procedure, shortened: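 Clarified glucosidase lysate (prepared at pH 6) was incubated with pH 6-adjusted crude bark extract at 35 deg C with shaking for 18 hours. Reactions were quenched with MeCN containing 2% AcOH and hexanophenone, then analysed by UV HPLC.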

[3] = Experiment 5-3: screening of additional glucosidases for deglycosylation with QS-18 in treated bark extract (80%) at pH 6 and 35 deg C; conditions: TBE 80% (QS-21 approx. 4 g/L), pH 6, 35 deg C; UV HPLC
Protocol: Experiment 5-1 was repeated, replacing CBE with Treated Bark Extract (TBE) at pH 6. TBE was prepared from CBE by PVPP treatment and concentration, to provide TBE with a QS-21 concentration of approximately 4 g/L. TBE was adjusted to pH 6 by dropwise addition of 2M NaOH with stirring.

B1: 864 (protein, listed as Stagonospora sp.)
chain: MPYKVNDESREGEGLNALLGALTLDEKISLLSAKNIWETPEVERVGIPSLKVTDGPNGARGGEFFDGTTAACFPACVSLAATFDRALSRQVGRALGQEAITKGAYVVLGPTVCCHRSPLGGRNFEAFSEDPVLSGALASEYVKGLQEERVAATVKHFLANEQDTRRFSVDQTISERALREIYLKPFEIVAKQADPWCFMSSYPKINGKHVDAQSKFLIDILRKEWGYEGMVMSDWGAASTVEGIKYGLDMEMPGPPRQREANLVRNAVKKGQISEGDIDARVLSTLNLLKKVGKFSDRKDTPKEQAIDRPEHRALIRKAGREGIVLLKNQNNILPIDIKKTQKVALLGPLAKYAAAHGGGSASLNCHYKITPYDAFTERLGKDVEITHSKGAHIFRVYPDLDAGCKNAHGNVGFLAEYFMEGDIEPSSVPFRIEEFPRGSFNTLMNTNVTGCKSVRFTTTYRPPVTGKHYLSFSGLGPSHLSINGVMVAEQKNSTKDAMSFFLGVQEEERVQFDFDAAKTYDLIMETHPSPTNNAELYLMEGQTSIHLGFIAQAEMEQDVLAEAVDLAKDADLAIVFVGNTTQWETEGQDLSSMTLPADGSQDNLIASVVAANPKTIVVNTTGVPVELPWLDDVPAFLQAWYAGQETGNAILDVLLGEMSPSGKLPISWPKKYEHTGCYGNFGLDSFDSRKVEYVEGVFVGYRWFDRQWGHDKEVRFPFGYGLSYTEFSITDTRISGSIANDKNARVTVAANVKNVGSMSGSEILQVYLEPPVEEGIDRPVKGLVGFVKVELQPKEEKTVEVVFARDAAAFWDEAANEWAVSMGLHHIVVATSAAPVDIKARLELHVENAFKFDP
Experiment 5-1 % conv [1]: 3.9%
Experiment 5-2 % conv [2]: <0.5%
Experiment 5-3 % conv [3]: <0.5%

B2: 848 (protein)
chain: MTLEEKVSMVAGADAWHSTGVERLGIPAIKVTDGPNGARGGDFGGGVGSACFPVGVCLGSTWNTALIERVGQALGQEVQSKQAHILLAPTVNIHRSPLNGRNFECYSEDPYLTARIAAAYITGVQKQGVGACIKHFVCNDSEFERHSISSEVGERALREIYLPPSETAVREAGVWAVMSAYNKLNGTYCSENPYTLLEILKGEWGFEGIVISDWGGTYSTVEAAANGLDLEMPGPARWMGEKLLQAMRDGQVSGPKKLGEAVDDKVRRLLWTIEKAGAQLGPEPPEQAIDRPEHRALIRQAAGEGIVLLKNDGVLPLDGARVKRIAVIGPNAAEAKIMGGGSAQVKAHYAVSPLDGIRARAGEAVDVQCALGCTNYREIPELKTEWLTPVGGGESGWTVAYYNNLDLAGDPVRAETTDRTRMMWFGQVAPGVDRECFSARLSGTLTVPQSGTYTLSLNSAGVSRIAIDGELVLDNWTDYRPSRGPFDRDRKVPTAEVELTAGQGYTFVVEYSKQQSPRFAMLRVGCLPAQPADLMERAVQAAAKADVALVFIGTSGEWESEGFDRPDMELPGRQVELLEAVAAANPNTVAVLNTGSPVSVRWLDKVAALVEAWFPGQECGNAIADVLFGDVNPSGRLSQTWPVRLQDNPAYINYPGENGRVLYGEGLFVGYRYYEKKQIEPRFPFGHGLSYTTFEYGALRLQSEYTLGEPIAVSVDVTNTGPVAGQEVVQLYVRDEESSLVRPEKELKAFAKLALEPGETQTVTLTLDERALSFYDDAKAGWVAEAGEFTVLVGASSRDIRCTARFTLTVPPDRS
modifications: uncultured microorganism
Experiment 5-1 % conv [1]: 3.8%
Experiment 5-2 % conv [2]: <0.5%
Experiment 5-3 % conv [3]: <0.5%

B3: 809 (protein, listed as Rhodococcus erythropolis)
chain: MELTAATGRNDVTENYVDGLSLEEKASLTSGSDFWHSQSVAGIESILLTDGPHGVRKQPEGGDALGLGHSIPATCFPPAVGLGSSWNLDLIRQVGEALGDEAKAEQVSVLLGPGINIKRSPLCGRNFEYVSEDPFLSGRVAAALITGIQSRGVGTSLKHFAANNQEHDRMRVSADVDERTLREIYLAGFEYAVKTAAPTTVMCSYNKINGVYSSQNHWLLTEVLREQWGFDGLVVSDWGAVNDRVAALAAGLDLEMPPTGTDTQIVDAVRGGDLDESVLTTAAERLSTLVKRTAAARTEGHTYDVERHHELARTAAAESAVLLANDGELLPLTPGGQTVAVIGEFACSPRYQGAGSSQVVPTKLDNALDAILDLEGADRVTFAPGFTFDGTPDDHMVTEAVDAARRADVAVLFLGLPSATESEGFDRTDIELPADQIALLEAVHGANPNTVVVLANGGVVSIEPWKDHAAAILEGWLLGQAGGSAIADLLFGITNPSGRLTETIPLRLQDNPSYLHFPGSQQHVRYGEGLYVGYRYYDSALREVAYPFGFGLSYTTFDITDTSVDAGKNSAEVTVTVRNSGDRSGSTVVQVYVHDASASIDRPAQELKGFAKVHLDPDESATVTITLDTRAFAYWSVAAQDWAIEPGDYEIRVGFSSRDIATTDTITLAGNVGVGTLDAMSTIGEWLAHPVGSAVLGAAMAAAAGDGAQAVSPEMMALAGSMPLGKLATFGLGITEEQVAQLVAAAAQPGS
Experiment 5-1 % conv [1]: 6.3%
Experiment 5-2 % conv [2]: <0.5%
Experiment 5-3 % conv [3]: <0.5%

B4: 862 (protein, listed as Bifidobacterium thermacidophilum)
chain: MDATTGTNKAPAPAQARQGNGRGGNEGRNASEIRHRVDDLTLEQKASLTSGADAWHVQGIDECGIPGYMITDGPHGLRKARPAEEQKTGLGDAVPVTCFPPAAGLSSSWDPGLVREVGEAMGEECIQEKVAVILGPAVNIKRNPLGGRCFEYWSEDPFLAGHEAVGIVEGVQSKGVGTSLKHFAANNQETDRLRISATISPRALREIYLPAFEYIVKTAQPWTVMCSYNRINGVHSAQNRWLLTDVLRREWGFQGIVMSDWGADHDRVASLNAGLNLEMPPSGTDDQIVAAVRDGRIAPEQLDSMAQGMIDLVAKAQPAMSRDGYRYDRDRHYDIARRAARESMVLLKNEQGTLPVRPGVRVAVIGEFARTARYQGGGSSHITPDRMSSFLDATARRGEQVDFAPGFTLDLDPADPVLEAQAIETARHADIVLMFMGLPEAAESEGFDRTSLDIPAKQTSLLHKISAVNPHVAVILSNGSVVSVAPWCDDAQAILESWLLGEAGGDALADVVFGDVSPSGKLAQTIPLDINDDPTMLNWPGEEGHVDYGEGVFVGYRYYDTYRKPVAYPFGFGLSYATFDVHDARVRRLGVDDAARVAAERAAGDAAQGNDVARADGAAHVDGACGAVVRVDATVTNTSDAPGAQVVEIYVAPGKSQVARPVHELKGFARVDLAPGESKAVSITLDERAFAYWSQRFDDWHVEAGDYTVEVGTSSRDIVARIPAHLDGDGKTMPLDEWSTFGEWAADPVGARVVEAVGREADQGRLPRLPQNGVMRIFLMAAPVNSLQMILGEEGLEVARFMLDEYRRIRG
Experiment 5-1 % conv [1]: 4.2%
Experiment 5-2 % conv [2]: <0.5%
Experiment 5-3 % conv [3]: <0.5%

B5: 875 (protein, listed as Exophiala spinifera)
chain: MGSYSGSQQGFESIISGLTVEEKATLLSGADFWTTSPVTRVGIPALKVSDGPNGARGGHFQGKTTSACFPASVSLAASFDREFAYKIGRALGQETKTKGAHVLLGPTVCHHRDPRGGRNFESFSEDPLLAGELASEWIAGLQSEGVGATVKHYAVNEQETRRFTIDARVDQRALREIYLKPFEIAVKRADPWAIMTSYNLVNGKHADEHKELITDILRGQWGFKGLVMSDWGGTNSVAPSLNAGHDLEMPGPPLKRTVDNIQRALQTGELTEDTLNQRVGNVLKLLQRAGKFENPEIAEEQAVDLPEHRSLIRQAAAESMVLLKNTNNILPLKSTNTKSIALLGLAREYLGHGGGSASVNSHHKVTAYEALQAAVGSSVQLNYAEGARIVRNLSPLSENVYNEEGVPGFTMKTFSKLNGDNPTVSTVPSSVYRTLEPSSIDQMTLLGTFKPKTSGLHYISLSTLGGTRVYINDELVFDYSNSQTTDIMAFLIGSPGEDKKRYLFTAGESYRIRIEAKATKDTISGFSLFTKEAIGFSLGFALESEHDADLLTAAIEAAKSSDVAVVFVGHTPIWESEGADRSGMDLPKDGSLDALVVAAAKVNPNTVVVNSTGSAISMPWIEDVAAVVQAWFPGQEAGHSIADVLLGKVTPSGKLPVTFPRAITDVPSYENFPGDIKNEVVHYKESIYTGYRHFDRRPEGVLFPFGFGLSYTTFDVVVTSVSRTKLRNHETLTVSADVTNTGTTEGAEVVQVYVGAGEGTSAIDRPAKELAGFAKVHLRPGEARKVAITFGRDSVAYWNESRDKWSVDKGAYTIYVGTSSVDIAGKLEVEVPEAFDFDP
Experiment 5-1 % conv [1]: 4.7%
Experiment 5-2 % conv [2]: <0.5%
Experiment 5-3 % conv [3]: <0.5%

B6: 805 (protein)
chain: MLDIEKLIDEMTLEEKAGLCSGDDMWHTKAVERLGIPRIKMSDGPHGMRTFDDNGKVIPAVCFPTGSALAASFDTELVERVGAAIGEAAKTNGVHTVLGPAVNMKRSPLCGRNFEYLSEDPYLAGKLGSAMVRGIQSKGVGACPKHFAVNNQETRRMSVSADLSERTLREVYLPAFETIVKESSPHTMMCAYNRINGTYASENEHLLDEILRKEWGYQGIVMTDWSAMNRRPRALQAGLELEMPSSAGVNDEKIVEAVKAGDLSIEVLDEAVRRLLTWINAELQGRTESVCDLGVQRELAREAAGKSAVLLKNDDVLPLRKGDKIAFIGGFADKPRFEGGGSSHVSVEHMVNAIDAAKDIPNITYTEGFNTDDALSDYELVAEAVRIASEADVAVIFAGLPAAFESEGHDRTTLEIPESQNKLIAAISAVQPKTVVVFHGGSPVYMPWRKDVAAILYMYLGGQEVGSASVDLLFGDRNPSGKLAETFPLKLEDTPCYMNFPGDGNNAEYSEGIYIGYRWYDKRKIAVEYPFGFGMSYSDFIYRQIRSANSRITDTDTLKIYVDVQNRGEYAGEEIVQLYVQPSKARQGVRPVKELKGFKKMMIAPGETKTVCFELDKRSFAEYKPEISGWYAATGEYTILAGGSSDNLPLQVKVYVESTDTIPLVYNDYTTIGDLWDSGLDVNEVLDALDAKQTDLSALGLPADKMDRAIHMEEVKRGMPIHAVISMGGRDMNKIYQALLKVDGLEGKENIPL
modifications: uncultured Clostridium sp.
Experiment 5-1 % conv [1]: 3.8%
Experiment 5-2 % conv [2]: <0.5%
Experiment 5-3 % conv [3]: <0.5%
